B1: human Rap1 isoform Rap1b (residues 1–167) (natural protein)
chain: MREYKLVVLGSGGVGKSALTVQFVQGIFVEKYDPTIEDSYRKQVEVDAQQCMLEILDTAGTEQFTAMRDLYMKNGQGFALVYSITAQSTFNDLQDLREQILRVKDTDDVPMILVGNKCDLEDERVVGKEQGQNLARQWNNCAFLESSAKSKINVNEIFYDLVRQINR

Assays:
[1] = target: murine talin1 head domain, residues 1–400 (THD) (murine, UniProt P26039 1-400); test: NMR titration
[2] = target: B1; test: NMR titration

murine talin1 head domain, residues 1–400 (THD), sequence (P26039 1-400): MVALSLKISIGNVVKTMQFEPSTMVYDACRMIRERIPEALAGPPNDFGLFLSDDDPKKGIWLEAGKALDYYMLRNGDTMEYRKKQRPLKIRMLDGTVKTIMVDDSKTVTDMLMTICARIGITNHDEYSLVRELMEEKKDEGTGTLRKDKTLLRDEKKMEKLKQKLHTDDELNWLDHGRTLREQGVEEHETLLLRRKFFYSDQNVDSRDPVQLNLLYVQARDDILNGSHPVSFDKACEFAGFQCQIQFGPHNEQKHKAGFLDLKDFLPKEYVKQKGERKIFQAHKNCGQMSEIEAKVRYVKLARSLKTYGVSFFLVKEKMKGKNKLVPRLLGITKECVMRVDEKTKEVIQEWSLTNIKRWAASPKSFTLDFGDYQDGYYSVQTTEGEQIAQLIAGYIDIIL

Binder: B1
- binding result [1]: binds

B2: talin1 F1(ΔL), residues 84–196 Δ141–170 (F1 Δloop) (domain or fragment)
chain: KQRPLKIRMLDGTVKTIMVDDSKTVTDMLMTICARIGITNHDEYSLVRELMEEKKDELNWLDHGRTLREQGVEEHETLLLRRK
- binding result [2]: binds

From PMC6548133 (The Journal of Cell Biology, 2019)
